Test results as given in article PMC10397247.
Where two headings read alike, the source gives them in different places.

What was measured:
Experiment in all cases: two-hybrid library CCmax;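 also: natural log of median RNA to DNA barcode read ratio; higher means stronger binding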
[1] = molecular target: T1, P6-AA-1HAA-D; conditions: mean of both orientations
T1 chain: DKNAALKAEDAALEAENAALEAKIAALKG

[2] = molecular target: T2, P6-AA-1HAA-E; conditions: mean of both orientations
T2 chain: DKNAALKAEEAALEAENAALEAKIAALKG

[3] = molecular target: T3, P6-AA-1HAA-H
T3 chain: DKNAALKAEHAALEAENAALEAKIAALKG

[4] = molecular target: T4, P6-AA-1HAA-K
T4 chain: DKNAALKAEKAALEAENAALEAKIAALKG

[5] = molecular target: T5, P6-AA-1HAA-L; conditions: mean of both orientations
T5 chain: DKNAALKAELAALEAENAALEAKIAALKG

[6] = molecular target: T6, P6-AA-1HAA-N; conditions: mean of both orientations
T6 chain: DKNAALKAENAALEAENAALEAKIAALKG

[7] = molecular target: T7, P6-AA-1HAA-R; conditions: mean of both orientations
T7 chain: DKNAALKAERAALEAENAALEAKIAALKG

[8] = molecular target: T8, P6-AA-1HAA-S; conditions: mean of both orientations
T8 chain: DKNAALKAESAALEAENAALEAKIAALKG

[9] = molecular target: T9, P6-AA-1HAA-T; conditions: mean of both orientations
T9 chain: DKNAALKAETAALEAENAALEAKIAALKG

[10] = molecular target: T10, P6-AA-1HAA-V
T10 chain: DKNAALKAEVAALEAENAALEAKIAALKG

[11] = molecular target: T11, P6-AA-1HAA-Y
T11 chain: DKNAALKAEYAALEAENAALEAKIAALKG

[12] = molecular target: T12, P6-AA-12HAA-D; conditions: mean of both orientations
T12 chain: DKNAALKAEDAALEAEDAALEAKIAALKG

[13] = molecular target: T13, P6-AA-12HAA-E; conditions: mean of both orientations
T13 chain: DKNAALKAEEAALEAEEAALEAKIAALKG

[14] = molecular target: T14, P6-AA-12HAA-H; conditions: mean of both orientations
T14 chain: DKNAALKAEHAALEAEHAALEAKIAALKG

[15] = molecular target: T15, P6-AA-12HAA-K; conditions: mean of both orientations
T15 chain: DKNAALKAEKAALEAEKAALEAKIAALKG

[16] = molecular target: T16, P6-AA-12HAA-L; conditions: mean of both orientations
T16 chain: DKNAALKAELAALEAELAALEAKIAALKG

[17] = molecular target: T17, P6-AA-12HAA-R; conditions: mean of both orientations
T17 chain: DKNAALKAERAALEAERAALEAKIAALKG

[18] = molecular target: T18, P6-AA-12HAA-S
T18 chain: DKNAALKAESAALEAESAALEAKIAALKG

[19] = molecular target: T19, P6-AA-12HAA-T; conditions: mean of both orientations
T19 chain: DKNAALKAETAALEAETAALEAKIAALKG

[20] = molecular target: T20, P6-AA-12HAA-V; conditions: mean of both orientations
T20 chain: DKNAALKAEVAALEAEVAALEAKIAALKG

[21] = molecular target: T21, P6-AA-12HAA-Y; conditions: mean of both orientations
T21 chain: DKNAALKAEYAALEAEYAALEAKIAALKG

[22] = molecular target: T22, P2-AA-12HAA-D; conditions: mean of both orientations
T22 chain: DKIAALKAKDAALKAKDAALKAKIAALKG

[23] = molecular target: T23, P2-AA-12HAA-E; conditions: mean of both orientations
T23 chain: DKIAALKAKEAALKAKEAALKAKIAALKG

[24] = molecular target: T24, P2-AA-12HAA-H; conditions: mean of both orientations
T24 chain: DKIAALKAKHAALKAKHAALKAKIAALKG

[25] = molecular target: T25, P2-AA-12HAA-I; conditions: mean of both orientations
T25 chain: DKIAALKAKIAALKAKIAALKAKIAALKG

[26] = molecular target: T26, P2-AA-12HAA-K; conditions: mean of both orientations
T26 chain: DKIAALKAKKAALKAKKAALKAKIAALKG

[27] = molecular target: T27, P2-AA-12HAA-L
T27 chain: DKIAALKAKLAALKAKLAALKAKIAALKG

[28] = molecular target: T28, P2-AA-12HAA-R; conditions: mean of both orientations
T28 chain: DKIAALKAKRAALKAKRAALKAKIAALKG

[29] = molecular target: T29, P2-AA-12HAA-S; conditions: mean of both orientations
T29 chain: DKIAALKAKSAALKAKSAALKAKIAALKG

[30] = molecular target: T30, P2-AA-12HAA-T; conditions: mean of both orientations
T30 chain: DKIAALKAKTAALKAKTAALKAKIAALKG

[31] = molecular target: T31, P2-AA-12HAA-V; conditions: mean of both orientations
T31 chain: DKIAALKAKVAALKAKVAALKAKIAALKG

[32] = molecular target: T32, P2-AA-12HAA-Y; conditions: mean of both orientations
T32 chain: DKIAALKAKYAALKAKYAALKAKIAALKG

[33] = molecular target: T33, P2-AA; conditions: mean of both orientations
T33 chain: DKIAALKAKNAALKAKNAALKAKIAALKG

DENAALEAKTAALKAKNAALKAEIAALEG [P5-AA-1HAA-T]
interaction score [1]: -0.594 | interaction score [2]: 0.317 | interaction score ([3]; mean of both orientations): 1.47 | interaction score ([4]; mean of both orientations): 0.498 | interaction score [5]: 1.91 | interaction score [6]: 0.702 | interaction score [7]: 0.322 | interaction score [8]: 0.78 | interaction score [9]: 0.456 | interaction score ([10]; mean of both orientations): 2.01 | interaction score ([11]; mean of both orientations): 1.19

DENAALEAKVAALKAKNAALKAEIAALEG [P5-AA-1HAA-V]
interaction score [1]: 0.818 | interaction score [2]: 2.25 | interaction score ([3]; mean of both orientations): 1.79 | interaction score ([4]; mean of both orientations): 2.25 | interaction score [5]: 2.32 | interaction score [6]: 1.42 | interaction score [7]: 1.76 | interaction score [8]: 1.53 | interaction score [9]: 1.93 | interaction score ([10]; mean of both orientations): 2.09 | interaction score ([11]; mean of both orientations): 2.48

DENAALEAKNAALKAKNAALKAEIAALEG [P5-AA-1HAA-N]
interaction score [12]: -1.55 | interaction score [13]: -0.844 | interaction score [14]: 0.901 | interaction score [15]: -0.291 | interaction score [16]: -0.372 | interaction score [17]: -0.112 | interaction score ([18]; mean of both orientations): -0.405 | interaction score [19]: -0.0689 | interaction score [20]: -0.62 | interaction score [21]: 0.697 | interaction score [1]: -0.622 | interaction score [2]: 0.442 | interaction score ([3]; mean of both orientations): 1.2 | interaction score ([4]; mean of both orientations): 0.958 | interaction score [5]: 1.05 | interaction score [6]: 2.27 | interaction score [7]: 0.871 | interaction score [8]: 1.15 | interaction score [9]: 1.25 | interaction score ([10]; mean of both orientations): 1.86 | interaction score ([11]; mean of both orientations): 1.5

DENAALEAKRAALKAKNAALKAEIAALEG [P5-AA-1HAA-R]
interaction score [1]: -0.756 | interaction score [2]: -0.332 | interaction score [3]: -0.333 | interaction score ([4]; mean of both orientations): -0.713 | interaction score [5]: 2.18 | interaction score [6]: 1.85 | interaction score [7]: -1.22 | interaction score [8]: 0.434 | interaction score [9]: 1.54 | interaction score ([10]; mean of both orientations): 2.18 | interaction score ([11]; mean of both orientations): 0.0514

DENAALEAKHAALKAKHAALKAEIAALEG [P5-AA-12HAA-H]
interaction score [12]: -1.53 | interaction score [13]: -1.49 | interaction score [14]: -1.49 | interaction score [15]: -1.6 | interaction score [16]: 1.16 | interaction score [17]: -1.68 | interaction score [18]: -1.37 | interaction score [19]: -0.831 | interaction score [20]: 1.55 | interaction score [21]: -0.856 | interaction score [6]: 0.14

DEIAALEAEKAALEAEKAALEAEIAALEG [P1-AA-12HAA-K]
interaction score [22]: -0.759 | interaction score [23]: -0.226 | interaction score [24]: 0.974 | interaction score [25]: 1.67 | interaction score [26]: -1.33 | interaction score [27]: 1.62 | interaction score [28]: -0.283 | interaction score [29]: -0.0454 | interaction score [30]: 0.253 | interaction score [31]: 1.38 | interaction score [32]: 0.916 | interaction score [33]: 1.75

DENAALEAKLAALKAKNAALKAEIAALEG [P5-AA-1HAA-L]
interaction score [1]: -0.436 | interaction score [2]: 1.45 | interaction score ([3]; mean of both orientations): 1.55 | interaction score ([4]; mean of both orientations): 1.78 | interaction score [5]: 2.49 | interaction score [6]: 1.66 | interaction score [7]: 1.43 | interaction score [8]: 1.85 | interaction score [9]: 2.08 | interaction score ([10]; mean of both orientations): 2.31 | interaction score ([11]; mean of both orientations): 1.93

DENAALEAKAAALKAKNAALKAEIAALEG [P5-AA-1HAA-A]
interaction score [1]: -1.94 | interaction score [2]: -0.184 | interaction score ([3]; mean of both orientations): -0.274 | interaction score ([4]; mean of both orientations): -0.453 | interaction score [5]: 1.94 | interaction score [6]: 0.981 | interaction score [7]: -0.629 | interaction score [8]: -0.02 | interaction score [9]: 0.325 | interaction score [10]: 2.66 | interaction score ([11]; mean of both orientations): 0.845

DENAALEAKDAALKAKNAALKAEIAALEG [P5-AA-1HAA-D]
interaction score [1]: -1.42 | interaction score [2]: -1.72 | interaction score ([3]; mean of both orientations): -0.764 | interaction score ([4]; mean of both orientations): -1.15 | interaction score [5]: -0.571 | interaction score [6]: -1.12 | interaction score [7]: -1.35 | interaction score [8]: -1.34 | interaction score [9]: -1.02 | interaction score ([10]; mean of both orientations): 0.68 | interaction score [11]: -0.724

DENAALEAKYAALKAKNAALKAEIAALEG [P5-AA-1HAA-Y]
interaction score [1]: -0.899 | interaction score [2]: -0.129 | interaction score ([3]; mean of both orientations): -0.1 | interaction score ([4]; mean of both orientations): 0.174 | interaction score [5]: 1.72 | interaction score [6]: 1.76 | interaction score [7]: -0.286 | interaction score [8]: 1.55 | interaction score [9]: 1.28 | interaction score ([10]; mean of both orientations): 1.79 | interaction score ([11]; mean of both orientations): 1.34

DENAALEAKHAALKAKNAALKAEIAALEG [P5-AA-1HAA-H]
interaction score [1]: -0.238 | interaction score [2]: -0.637 | interaction score ([3]; mean of both orientations): -0.596 | interaction score ([4]; mean of both orientations): -0.495 | interaction score [5]: 1.9 | interaction score [6]: 1.97 | interaction score [7]: -1.13 | interaction score [8]: 0.88 | interaction score [9]: 1.49 | interaction score ([10]; mean of both orientations): 2.15 | interaction score ([11]; mean of both orientations): 0.439

DENAALEAKSAALKAKNAALKAEIAALEG [P5-AA-1HAA-S]
interaction score [1]: -1.74 | interaction score [2]: -0.781 | interaction score ([3]; mean of both orientations): 0.0581 | interaction score [4]: -1.01 | interaction score [5]: 1.67 | interaction score [6]: 0.913 | interaction score [7]: -0.821 | interaction score [8]: -0.742 | interaction score [9]: 0.235 | interaction score ([10]; mean of both orientations): 2.16 | interaction score ([11]; mean of both orientations): 0.832

DENAALEAKKAALKAKNAALKAEIAALEG [P5-AA-1HAA-K]
interaction score [1]: -0.814 | interaction score [2]: -0.501 | interaction score ([3]; mean of both orientations): -0.889 | interaction score ([4]; mean of both orientations): -0.653 | interaction score [5]: 1.84 | interaction score [6]: 1.41 | interaction score [7]: -1.3 | interaction score [8]: 0.0853 | interaction score [9]: 1.53 | interaction score ([10]; mean of both orientations): 2.05 | interaction score ([11]; mean of both orientations): 0.0221

DENAALEAKEAALKAKNAALKAEIAALEG [P5-AA-1HAA-E]
interaction score [1]: -1.78 | interaction score [2]: -1.42 | interaction score ([3]; mean of both orientations): -1.76 | interaction score ([4]; mean of both orientations): -1.41 | interaction score [5]: 0.711 | interaction score [6]: -0.649 | interaction score [7]: -1.33 | interaction score [8]: -1.13 | interaction score [9]: -0.112 | interaction score ([10]; mean of both orientations): 1.57 | interaction score ([11]; mean of both orientations): -0.801
